Numbered stars: 1 amine (or outer) side, 2 acyl side, 3 side chain; on linkers, the order of the positions; unused ones are H or OH. Bridge positions count the residues as written; N and C are the ends. Side chains are listed from the residue outwards. Ends that are not written are not given here. * marks the point of attachment. C20 diacid = O=C(O)CCCCCCCCCCCCCCCCCCC(=O)*; γGlu = O=C(O)[C@H](CCC(=O)[*:2])N[*:1]; AEEA = NCCOCCOCC(=O)O
T1: human calcitonin receptor (human, UniProt P30988 25-474)
T1 construct: whole, on cells; Used as cell membranes; also called hCTR; hCT
T1 sequence (looked up): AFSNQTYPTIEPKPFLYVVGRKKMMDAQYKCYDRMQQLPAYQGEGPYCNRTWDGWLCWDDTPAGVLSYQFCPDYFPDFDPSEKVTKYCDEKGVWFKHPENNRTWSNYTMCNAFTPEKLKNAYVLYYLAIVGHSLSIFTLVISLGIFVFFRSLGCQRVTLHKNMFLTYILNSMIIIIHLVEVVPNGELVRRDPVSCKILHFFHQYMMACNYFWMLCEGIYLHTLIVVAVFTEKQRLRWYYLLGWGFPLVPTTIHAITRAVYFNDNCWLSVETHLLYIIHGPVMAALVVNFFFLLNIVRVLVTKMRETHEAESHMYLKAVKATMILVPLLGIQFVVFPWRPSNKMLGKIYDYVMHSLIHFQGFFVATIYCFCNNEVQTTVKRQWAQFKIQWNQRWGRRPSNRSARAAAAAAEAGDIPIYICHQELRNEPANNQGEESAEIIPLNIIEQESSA


Tests used:
[1] = molecular target: T1, human calcitonin receptor; experiment: ratio of hCTR IC50 to hAmylin-R IC50 (reference: human amylin receptor)
How it was run: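 IC₅₀ values were derived by one-site competition analysis of SPA counts. Cell membranes (35 ng/μL) with SPA beads were incubated with test compounds for 120 min at 25° C in Hepes buffer, pH 7.4, containing CaCl2, MgCl₂, OA and Tween20.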

[2] = molecular target: T1, human calcitonin receptor; experiment: SPA competition on BHK cell membranes, 125I-calcitonin as radioligand (Assay VII)
How it was run: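 BHK hCTR membranes 35 ng/μL + SPA beads 0.05 mg/well; buffer 50 mM Hepes pH 7.4, 1 mM CaCl2, 5 mM MgCl₂, 0.1% OA, 0.02% Tween20. 120 min, 25° C., shaking. Scintillation count; IC50 by one-site binding competition.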

Row | Binder | Ratio hCT/hAmylin binding [1] | IC50 [2]
1 | K([AEEA-γGlu-C20 diacid])CNTATCATQRLATFLRHSSPNFGAIPSSTPVGSNTY-NH2 (disulfide 2-7; N-terminus assumed; SMILES CC[C@H](C)[C@H](NC(=O)[C@H](C)NC(=O)CNC(=O)[C@H](Cc1ccccc1)NC(=O)[C@H](CC(N)=O)NC(=O)[C@@H]1CCCN1C(=O)[C@H](CO)NC(=O)[C@H](CO)NC(=O)[C@H](Cc1c[nH]cn1)NC(=O)[C@H](CCCNC(=N)N)NC(=O)[C@H](CC(C)C)NC(=O)[C@H](Cc1ccccc1)NC(=O)[C@@H](NC(=O)[C@H](C)NC(=O)[C@H](CC(C)C)NC(=O)[C@H](CCCNC(=N)N)NC(=O)[C@H](CCC(N)=O)NC(=O)[C@@H](NC(=O)[C@H](C)NC(=O)[C@@H]1CSSC[C@H](NC(=O)[C@@H](N)CCCCNC(=O)COCCOCCNC(=O)CC[C@H](NC(=O)CCCCCCCCCCCCCCCCCCC(=O)O)C(=O)O)C(=O)N[C@@H](CC(N)=O)C(=O)N[C@@H]([C@@H](C)O)C(=O)N[C@@H](C)C(=O)N[C@@H]([C@@H](C)O)C(=O)N1)[C@@H](C)O)[C@@H](C)O)C(=O)N1CCC[C@H]1C(=O)N[C@@H](CO)C(=O)N[C@@H](CO)C(=O)N[C@H](C(=O)N1CCC[C@H]1C(=O)N[C@H](C(=O)NCC(=O)N[C@@H](CO)C(=O)N[C@@H](CC(N)=O)C(=O)N[C@H](C(=O)N[C@@H](Cc1ccc(O)cc1)C(N)=O)[C@@H](C)O)C(C)C)[C@@H](C)O, also called compound 75) | 91.4 | 60.9 nM
2 | K([γGlu-C20 diacid])CNTATCATQRLARFLRHSSPNFGAIPSSTNVGPNTY-NH2 (disulfide 2-7; N-terminus assumed; SMILES CC[C@H](C)[C@H](NC(=O)[C@H](C)NC(=O)CNC(=O)[C@H](Cc1ccccc1)NC(=O)[C@H](CC(N)=O)NC(=O)[C@@H]1CCCN1C(=O)[C@H](CO)NC(=O)[C@H](CO)NC(=O)[C@H](Cc1c[nH]cn1)NC(=O)[C@H](CCCNC(=N)N)NC(=O)[C@H](CC(C)C)NC(=O)[C@H](Cc1ccccc1)NC(=O)[C@H](CCCNC(=N)N)NC(=O)[C@H](C)NC(=O)[C@H](CC(C)C)NC(=O)[C@H](CCCNC(=N)N)NC(=O)[C@H](CCC(N)=O)NC(=O)[C@@H](NC(=O)[C@H](C)NC(=O)[C@@H]1CSSC[C@H](NC(=O)[C@@H](N)CCCCNC(=O)CC[C@H](NC(=O)CCCCCCCCCCCCCCCCCCC(=O)O)C(=O)O)C(=O)N[C@@H](CC(N)=O)C(=O)N[C@@H]([C@@H](C)O)C(=O)N[C@@H](C)C(=O)N[C@@H]([C@@H](C)O)C(=O)N1)[C@@H](C)O)C(=O)N1CCC[C@H]1C(=O)N[C@@H](CO)C(=O)N[C@@H](CO)C(=O)N[C@H](C(=O)N[C@@H](CC(N)=O)C(=O)N[C@H](C(=O)NCC(=O)N1CCC[C@H]1C(=O)N[C@@H](CC(N)=O)C(=O)N[C@H](C(=O)N[C@@H](Cc1ccc(O)cc1)C(N)=O)[C@@H](C)O)C(C)C)[C@@H](C)O, also called compound 65) | 82.4 | 53.5 nM
3 | K([γGlu-C20 diacid])CNTATCATQRLANFLRHSSPNFGAIPSSTNVGRNTY-NH2 (disulfide 2-7; N-terminus assumed; SMILES CC[C@H](C)[C@H](NC(=O)[C@H](C)NC(=O)CNC(=O)[C@H](Cc1ccccc1)NC(=O)[C@H](CC(N)=O)NC(=O)[C@@H]1CCCN1C(=O)[C@H](CO)NC(=O)[C@H](CO)NC(=O)[C@H](Cc1c[nH]cn1)NC(=O)[C@H](CCCNC(=N)N)NC(=O)[C@H](CC(C)C)NC(=O)[C@H](Cc1ccccc1)NC(=O)[C@H](CC(N)=O)NC(=O)[C@H](C)NC(=O)[C@H](CC(C)C)NC(=O)[C@H](CCCNC(=N)N)NC(=O)[C@H](CCC(N)=O)NC(=O)[C@@H](NC(=O)[C@H](C)NC(=O)[C@@H]1CSSC[C@H](NC(=O)[C@@H](N)CCCCNC(=O)CC[C@H](NC(=O)CCCCCCCCCCCCCCCCCCC(=O)O)C(=O)O)C(=O)N[C@@H](CC(N)=O)C(=O)N[C@@H]([C@@H](C)O)C(=O)N[C@@H](C)C(=O)N[C@@H]([C@@H](C)O)C(=O)N1)[C@@H](C)O)C(=O)N1CCC[C@H]1C(=O)N[C@@H](CO)C(=O)N[C@@H](CO)C(=O)N[C@H](C(=O)N[C@@H](CC(N)=O)C(=O)N[C@H](C(=O)NCC(=O)N[C@@H](CCCNC(=N)N)C(=O)N[C@@H](CC(N)=O)C(=O)N[C@H](C(=O)N[C@@H](Cc1ccc(O)cc1)C(N)=O)[C@@H](C)O)C(C)C)[C@@H](C)O, also called compound 79) [N^ε1-[(4S)-4-carboxy-4-(19-carboxynonadecanoylamino)butanoyl]-[Arg17,Pro21,Pro27,Arg34]-h-amylin] | 46.1 | 36.4 nM

The next binders have a lower IC50 [2] than those just listed; values first:

Row | Ratio hCT/hAmylin binding [1] | IC50 [2] | Binder
4 | 101 | 17.8 nM | K([γGlu-C20 diacid])CNTATCATQRLAAFLRHSSPNFGAIPSSTNVGHNTY-NH2 (disulfide 2-7; N-terminus assumed; SMILES CC[C@H](C)[C@H](NC(=O)[C@H](C)NC(=O)CNC(=O)[C@H](Cc1ccccc1)NC(=O)[C@H](CC(N)=O)NC(=O)[C@@H]1CCCN1C(=O)[C@H](CO)NC(=O)[C@H](CO)NC(=O)[C@H](Cc1c[nH]cn1)NC(=O)[C@H](CCCNC(=N)N)NC(=O)[C@H](CC(C)C)NC(=O)[C@H](Cc1ccccc1)NC(=O)[C@H](C)NC(=O)[C@H](C)NC(=O)[C@H](CC(C)C)NC(=O)[C@H](CCCNC(=N)N)NC(=O)[C@H](CCC(N)=O)NC(=O)[C@@H](NC(=O)[C@H](C)NC(=O)[C@@H]1CSSC[C@H](NC(=O)[C@@H](N)CCCCNC(=O)CC[C@H](NC(=O)CCCCCCCCCCCCCCCCCCC(=O)O)C(=O)O)C(=O)N[C@@H](CC(N)=O)C(=O)N[C@@H]([C@@H](C)O)C(=O)N[C@@H](C)C(=O)N[C@@H]([C@@H](C)O)C(=O)N1)[C@@H](C)O)C(=O)N1CCC[C@H]1C(=O)N[C@@H](CO)C(=O)N[C@@H](CO)C(=O)N[C@H](C(=O)N[C@@H](CC(N)=O)C(=O)N[C@H](C(=O)NCC(=O)N[C@@H](Cc1c[nH]cn1)C(=O)N[C@@H](CC(N)=O)C(=O)N[C@H](C(=O)N[C@@H](Cc1ccc(O)cc1)C(N)=O)[C@@H](C)O)C(C)C)[C@@H](C)O, also called compound 93)
5 | 28.5 | 6.62 nM | K([γGlu-C20 diacid])CNTATCATQRLAEFLRHSSPNFGAIPSSTNVGRETY-NH2 (disulfide 2-7; N-terminus assumed; SMILES CC[C@H](C)[C@H](NC(=O)[C@H](C)NC(=O)CNC(=O)[C@H](Cc1ccccc1)NC(=O)[C@H](CC(N)=O)NC(=O)[C@@H]1CCCN1C(=O)[C@H](CO)NC(=O)[C@H](CO)NC(=O)[C@H](Cc1c[nH]cn1)NC(=O)[C@H](CCCNC(=N)N)NC(=O)[C@H](CC(C)C)NC(=O)[C@H](Cc1ccccc1)NC(=O)[C@H](CCC(=O)O)NC(=O)[C@H](C)NC(=O)[C@H](CC(C)C)NC(=O)[C@H](CCCNC(=N)N)NC(=O)[C@H](CCC(N)=O)NC(=O)[C@@H](NC(=O)[C@H](C)NC(=O)[C@@H]1CSSC[C@H](NC(=O)[C@@H](N)CCCCNC(=O)CC[C@H](NC(=O)CCCCCCCCCCCCCCCCCCC(=O)O)C(=O)O)C(=O)N[C@@H](CC(N)=O)C(=O)N[C@@H]([C@@H](C)O)C(=O)N[C@@H](C)C(=O)N[C@@H]([C@@H](C)O)C(=O)N1)[C@@H](C)O)C(=O)N1CCC[C@H]1C(=O)N[C@@H](CO)C(=O)N[C@@H](CO)C(=O)N[C@H](C(=O)N[C@@H](CC(N)=O)C(=O)N[C@H](C(=O)NCC(=O)N[C@@H](CCCNC(=N)N)C(=O)N[C@@H](CCC(=O)O)C(=O)N[C@H](C(=O)N[C@@H](Cc1ccc(O)cc1)C(N)=O)[C@@H](C)O)C(C)C)[C@@H](C)O)
6 | 46.3 | 6.86 nM | K([γGlu-C20 diacid])CNTATCATQRLAAFLRHSSPNFGAIPSSTNVGPNTY-NH2 (disulfide 2-7; N-terminus assumed; SMILES CC[C@H](C)[C@H](NC(=O)[C@H](C)NC(=O)CNC(=O)[C@H](Cc1ccccc1)NC(=O)[C@H](CC(N)=O)NC(=O)[C@@H]1CCCN1C(=O)[C@H](CO)NC(=O)[C@H](CO)NC(=O)[C@H](Cc1c[nH]cn1)NC(=O)[C@H](CCCNC(=N)N)NC(=O)[C@H](CC(C)C)NC(=O)[C@H](Cc1ccccc1)NC(=O)[C@H](C)NC(=O)[C@H](C)NC(=O)[C@H](CC(C)C)NC(=O)[C@H](CCCNC(=N)N)NC(=O)[C@H](CCC(N)=O)NC(=O)[C@@H](NC(=O)[C@H](C)NC(=O)[C@@H]1CSSC[C@H](NC(=O)[C@@H](N)CCCCNC(=O)CC[C@H](NC(=O)CCCCCCCCCCCCCCCCCCC(=O)O)C(=O)O)C(=O)N[C@@H](CC(N)=O)C(=O)N[C@@H]([C@@H](C)O)C(=O)N[C@@H](C)C(=O)N[C@@H]([C@@H](C)O)C(=O)N1)[C@@H](C)O)C(=O)N1CCC[C@H]1C(=O)N[C@@H](CO)C(=O)N[C@@H](CO)C(=O)N[C@H](C(=O)N[C@@H](CC(N)=O)C(=O)N[C@H](C(=O)NCC(=O)N1CCC[C@H]1C(=O)N[C@@H](CC(N)=O)C(=O)N[C@H](C(=O)N[C@@H](Cc1ccc(O)cc1)C(N)=O)[C@@H](C)O)C(C)C)[C@@H](C)O, also called compound 94)

— US20140087995A1 (published 2014)
